Reference: PMC5695019, “Expression, Purification, and Characterization of (R)-Sulfolactate Dehydrogenase (ComC) from the Rumen Methanogen Methanobrevibacter millerae SM9” (Archaea, 2017)

Tests used:
purified protein [1] = substrate: NC(=O)C1=CN([C@@H]2O[C@H](COP(=O)(O)OP(=O)(O)OC[C@H]3O[C@@H](n4cnc5c(N)ncnc54)[C@H](O)[C@@H]3O)[C@@H](O)[C@H]2O)C=CC1; assay: purified protein; format: biochemical, Methanobrevibacter millerae; conditions: reduction reaction, 500 μM sulfopyruvate, 400 mM KCl, 50 mM BTP pH 6.5, 37°C, varied: cofactor
purified protein [2] = substrate: O=C(O)C(=O)CS(=O)(=O)O; assay: purified protein; format: biochemical, Methanobrevibacter millerae; conditions: reduction reaction, 400 μM NADH, 400 mM KCl, 50 mM BTP pH 6.5, 37°C

B1: ComC ((R)-sulfolactate dehydrogenase) (Methanobrevibacter millerae) (protein)
chain: MKIMKDNEIALVKEILKKLGASEEDCELVAEATIDADLKGFTSHGLGRFPQYLISIEAGTINLEDNITIEKETPAIALINGNSGFGQAVSYKAMQIAIKKAKEVGIGCVGVHNTNHFGVTGFYSDLALRENVIGMVIANTDPAIAPLGGKEALIGTNPIAIGIPSETYITVDMATSVTARGKIIESRRKGLDLPEGWALDKDGNPTTDPEAALDGGSILPFGGFKGYALALMVEILTGPLVQAGYGTGVTGTASPTKDCTKGDLYIAIDPSKFGDFGDFVANTEDFVSQVRATGETVAIPGDLEVKRIAEAEENGIEIDAKLYEQLKGICDDLDIDIDSYLED
notes: full-length, His-tagged (pET151D TOPO, E. coli Rosetta 2), tag kept, 376 residues and 40104 Da with tag; dimer (75 kDa by gel filtration); primers encode N-terminus MKIMKDNE and C-terminus DIDSYLED
Purified protein [1]
  Km: 55.1 ± 7.6 µM
  Vmax: 73.1 µmol/min/mg
  kcat: 48.9 ± 2.2 s⁻¹
Purified protein [2]
  Km: 196 ± 71 µM
  Vmax: 93.9 µmol/min/mg
  kcat: 62.8 ± 9.7 s⁻¹
